The text below walks through data of paper doi:10.1101/2023.04.22.537027 (bioRxiv, 2023).

The data set concerns the molecule itself. The data set is described as follows: crystal structure.

B1: Cdc10_(Δ1-10) (domain or fragment)
chain: SYVGFDTITNQIEHRLLKKGFQFNIMVVGQSGLGKSTLINTLFASHLIDSATGDDISALPVTKTTEMKISTHTLVEDRVRLNINVIDTPGFGDFIDNSKAWEPIVKYIKEQHSQYLRKELTAQRERFITDTRVHAILYFLQPNGKELSRLDVEALKRLTEIANVIPVIGKSDTLTLDERTEFRELIQNEFEKYNFKIYPYDSEELTDEELELNRSVRSIIPFAVVGSENEIEINGETFRGRKTRWSAINVEDINQCDFVYLREFLIRTHLQDLIETTSYIHYEGFRARQLIALKENANSRSSAHMSSNAIQR
On to B1, for which the binding result is “binds”.
